Measured values published in IntAct's records for PubMed 24076655.

B1: E3 ubiquitin-protein ligase ARIH2 (Homo sapiens), O95376 (parent)
chain: MSVDMNSQGSDSNEEDYDPNCEEEEEEEEDDPGDIEDYYVGVASDVEQQGADAFDPEEYQFTCLTYKESEGALNEHMTSLASVLKVSHSVAKLILVNFHWQVSEILDRYKSNSAQLLVEARVQPNPSKHVPTSHPPHHCAVCMQFVRKENLLSLACQHQFCRSCWEQHCSVLVKDGVGVGVSCMAQDCPLRTPEDFVFPLLPNEELREKYRRYLFRDYVESHYQLQLCPGADCPMVIRVQEPRARRVQCNRCNEVFCFKCRQMYHAPTDCATIRKWLTKCADDSETANYISAHTKDCPKCNICIEKNGGCNHMQCSKCKHDFCWMCLGDWKTHGSEYYECSRYKENPDIVNQSQQAQAREALKKYLFYFERWENHNKSLQLEAQTYQRIHEKIQERVMNNLGTWIDWQYLQNAAKLLAKCRYTLQYTYPYAYYMESGPRKKLFEYQQAQLEAEIENLSWKVERADSYDRGDLENQMHIAEQRRRTLLKDFHDT

Variants of: B1
Details: with cul5_human CUL5, Q93034
cul5_human CUL5, Q93034, sequence (Q93034 whole entry): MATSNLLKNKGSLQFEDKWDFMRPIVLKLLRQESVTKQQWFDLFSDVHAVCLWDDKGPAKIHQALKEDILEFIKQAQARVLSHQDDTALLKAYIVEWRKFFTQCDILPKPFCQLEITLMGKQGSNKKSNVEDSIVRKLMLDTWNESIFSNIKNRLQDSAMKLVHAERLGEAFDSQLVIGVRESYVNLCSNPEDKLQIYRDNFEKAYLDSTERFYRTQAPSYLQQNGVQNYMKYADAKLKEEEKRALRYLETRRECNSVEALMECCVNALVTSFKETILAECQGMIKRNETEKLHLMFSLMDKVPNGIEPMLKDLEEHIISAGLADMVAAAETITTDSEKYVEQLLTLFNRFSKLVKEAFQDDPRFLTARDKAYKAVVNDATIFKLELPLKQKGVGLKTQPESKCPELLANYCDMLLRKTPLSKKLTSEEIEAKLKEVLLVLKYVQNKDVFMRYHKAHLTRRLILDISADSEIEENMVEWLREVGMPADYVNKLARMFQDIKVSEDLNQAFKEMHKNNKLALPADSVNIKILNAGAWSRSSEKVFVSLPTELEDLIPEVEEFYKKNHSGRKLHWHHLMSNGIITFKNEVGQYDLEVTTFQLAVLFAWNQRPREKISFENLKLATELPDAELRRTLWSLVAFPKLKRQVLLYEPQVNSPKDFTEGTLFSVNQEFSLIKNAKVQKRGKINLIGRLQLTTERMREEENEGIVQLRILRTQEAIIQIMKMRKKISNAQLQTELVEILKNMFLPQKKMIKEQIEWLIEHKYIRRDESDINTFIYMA
In the case of C300A, the “effect of a mutation on the interaction” value is reported as “increasing interaction”.

Variants of: B1
Details: with cul5_human CUL5, Q93034
Remark: another data set of the same source
With W100A the “effect of a mutation on the interaction” value was “decreasing interaction”.

Variants of: B1
Details: with cul5_human CUL5, Q93034
Remark: another data set of the same source
In the case of C310S, the “effect of a mutation on the interaction” value is reported as “increasing interaction”.

Variants of: B1
Details: with cul5_human CUL5, Q93034
Remark: another data set of the same source
For C310A, the “effect of a mutation on the interaction” value was “increasing interaction”.

Variants of: B1
Details: with cul5_human CUL5, Q93034
Remark: another data set of the same source
With C318A the “effect of a mutation on the interaction” value was “increasing interaction”.

Variants of: B1
Details: with cul5_human CUL5, Q93034
Remark: another data set of the same source
With L84A;V86A;W100A the “effect of a mutation on the interaction” value was “decreasing interaction”.

Variants of: B1
Details: with ub2l3_human UBE2L3, P68036
For H158A, the “effect of a mutation on the interaction” value was “disrupting interaction”.
